Four molecules from article PMC4055408, “The Transcription Factor TFII-I Promotes DNA Translesion Synthesis and Genomic Stability” (PLoS Genetics, 2014) can be followed below.

Series [1] concerns the target T1, Rev7 R124A–Rev3L (residues 1847–1898) complex (human, UniProt Q9UI95 1-211; O60673 1847-1898, R124A).
T1 construct: human Rev7 with R124A (disrupts Rev7 dimerization); also called Rev7–Rev3L; source: recombinant, purified; prepared as previously described; copies: 1 + 1
Put plainly: SEC; purified recombinant proteins mixed (1:1:1 molar ratios for Figure 1E) and fractionated on Superdex 200 10/300 GL; fractions on SDS-PAGE, Coomassie. Particulars: both partners purified. (In general: In gel filtration, larger molecules generally elute earlier.)

A further series concerns the target T2, His6-Rev7 R124A (human, UniProt Q9UI95 1-211, R124A).
T2 construct: human Rev7 with R124A (disrupts Rev7 dimerization); The Rev7 chain of m12, written alone for the pairs that touch inside the reconstituted complexes; source: prepared as previously described
Described as above. As to conditions: both partners purified.

Series [2] concerns the molecule itself. Put plainly: SEC; single purified TFII-I fragments fractionated on Superdex 200; apparent molecular mass against standards; monomer or homodimer.

A word on the stoichiometry N: it is the number of molecules, sites or subunits per partner or assembly.

T1 sequence (Q9UI95 whole entry R124A, the tested form may be a part, one chain of several): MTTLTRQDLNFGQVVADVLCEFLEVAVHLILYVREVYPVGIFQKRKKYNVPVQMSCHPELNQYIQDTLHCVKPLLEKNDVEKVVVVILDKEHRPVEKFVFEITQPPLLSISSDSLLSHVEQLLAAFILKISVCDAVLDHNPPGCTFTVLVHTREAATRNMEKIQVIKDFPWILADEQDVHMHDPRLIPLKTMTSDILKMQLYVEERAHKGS
T2 sequence (Q9UI95 whole entry R124A): as the sequence (Q9UI95 whole entry R124A, the tested form may be a part, one chain of several) above

B1: TFII-I fragment (residues 350–667) containing R2-R4 (domain or fragment, human, UniProt P78347 350-667, looked up)
chain: NFEKWNARITDLRKQVEELFERKYAQAIKAKGPVTIPYPLFQSHVEDLYVEGLPEGIPFRRPSTYGIPRLERILLAKERIRFVIKKHELLNSTREDLQLDKPASGVKEEWYARITKLRKMVDQLFCKKFAEALGSTEAKAVPYQKFEAHPNDLYVEGLPENIPFRSPSWYGIPRLEKIIQVGNRIKFVIKRPELLTHSTTEVTQPRTNTPVKEDWNVRITKLRKQVEEIFNLKFAQALGLTEAVKVPYPVFESNPEFLYVEGLPEGIPFRSPTWFGIPRLERIVRGSNKIKFVVKKPELVISYLPPGMASKINTKALQ
notes: source: bacteria, GST fusion, purified (glutathione-Sepharose 4B, PreScission, anion exchange, size exclusion)
For B1, the “stoichiometry N” value in series [1] was 1.

B2: Rev1 CTD (residues 1140–1251) (domain or fragment, human, UniProt Q9UBZ9 1140-1251, looked up)
chain: GLSSLQSDPAGCVRPPAPNLAGAVEFNDVKTLLREWITTISDPMEEDILQVVKYCTDLIEEKDLEKLDLVIKYMKRLMQQSVESVWNMAFDFILDNVQVVLQQTYGSTLKVT
notes: Rev1 C-terminal domain, residues 1140-1251; also called C-terminal domain (CTD) of Rev1; source: bacteria, GST fusion, purified (glutathione-Sepharose 4B, PreScission, anion exchange, size exclusion)
For the molecule B2, in series [1], the “stoichiometry N” value amounted to 1.

B3: Rev3L RBM (residues 1847–1898) (domain or fragment, human, UniProt O60673 1847-1898, looked up)
chain: MLTPTPDSSPRSTSSPSQSKNGSFTPRTANILKPLMSPPSREEIMATLLDHD
notes: The Rev3L chain of m12; also called Rev3L fragment; source: recombinant, purified together with His6-Rev7 R124A; prepared as previously described
For the molecule B3, in the series with His6-Rev7 R124A, the binding result is reported as “binds”.

B4: TFII-I^1–667 fragment (domain or fragment, human, UniProt P78347 1-667, looked up)
chain: MAQVAMSTLPVEDEESSESRMVVTFLMSALESMCKELAKSKAEVACIAVYETDVFVVGTERGRAFVNTRKDFQKDFVKYCVEEEEKAAEMHKMKSTTQANRMSVDAVEIETLRKTVEDYFCFCYGKALGKSTVVPVPYEKMLRDQSAVVVQGLPEGVAFKHPENYDLATLKWILENKAGISFIIKRPFLEPKKHVGGRVMVTDADRSILSPGGSCGPIKVKTEPTEDSGISLEMAAVTVKEESEDPDYYQYNIQAGPSETDDVDEKQPLSKPLQGSHHSSEGNEGTEMEVPAEDSTQHVPSETSEDPEVEVTIEDDDYSPPSKRPKANELPQPPVPEPANAGKRKVREFNFEKWNARITDLRKQVEELFERKYAQAIKAKGPVTIPYPLFQSHVEDLYVEGLPEGIPFRRPSTYGIPRLERILLAKERIRFVIKKHELLNSTREDLQLDKPASGVKEEWYARITKLRKMVDQLFCKKFAEALGSTEAKAVPYQKFEAHPNDLYVEGLPENIPFRSPSWYGIPRLEKIIQVGNRIKFVIKRPELLTHSTTEVTQPRTNTPVKEDWNVRITKLRKQVEEIFNLKFAQALGLTEAVKVPYPVFESNPEFLYVEGLPEGIPFRSPTWFGIPRLERIVRGSNKIKFVVKKPELVISYLPPGMASKINTKALQ
notes: as for B1
With B4, in series [2], the “stoichiometry N” value is 2.
